Reference: patent US11332512B2, “Peptides and combination of peptides for use in immunotherapy against various tumors” (Immatics Biotechnologies GmbH, priority 2015, dated 2022)

Molecular target: HLA-A*02:01 (Homo sapiens, UniProt P04439, D140Y/D185E/D98H/E176V/E277Q/G131W/G231S/I119V/I121R/I166T/I218V/L300P/L318F/N151K/N90K/P208A/P217A/Q86G/Q94H/R138H/R169H/T345S)
Assay: MHC binding assay: UV-ligand exchange with beta2m ELISA (peptide exchange yield)
Settings: binding to HLA-A*02:01, β2m ELISA
Source text: Candidate peptides for T cell based therapies according to the present invention were further tested for their MHC binding capacity (affinity). The individual peptide-MHC complexes were produced by UV-ligand exchange, where a UV-sensitive peptide is cleaved upon UV-irradiation, and exchanged with the peptide of interest as analyzed. Only peptide candidates that can effectively bind and stabilize the peptide-receptive MHC molecules prevent dissociation of the MHC complexes. To determine the yield of the exchange reaction, an ELISA was performed based on the detection of the light chain (β2m) of stabilized MHC complexes. The assay was performed as generally described in Rodenko et al. (Rodenko et al., 2006).
96 well MAXISorp plates (NUNC) were coated over night with 2 ug/ml streptavidin in PBS at room temperature, washed 4× and blocked for 1 h at 37° C. in 2% BSA containing blocking buffer. Refolded HLA-A*02:01/MLA-001 monomers served as standards, covering the range of 15-500 ng/ml. Peptide-MHC monomers of the UV-exchange reaction were diluted 100 fold in blocking buffer. Samples were incubated for 1 h at 37° C., washed four times, incubated with 2 ug/ml HRP conjugated anti-β2m for 1 h at 37° C., washed again and detected with TMB solution that is stopped with […]. Absorption was measured at 450 nm. Candidate peptides that show a high exchange yield (preferably higher than 50%, most preferred higher than 75%) are generally preferred for a generation and production of antibodies or fragments thereof, and/or T cell receptors or fragments thereof, as they show sufficient avidity to the MHC molecules and prevent dissociation of the MHC complexes.

| Substance | Peptide exchange (MHC class I binding score, peptide exchange yield) |
| --- | --- |
| 63 (KLLPMVIQL; listed as Homo sapiens) [compound 63] | +++ (= ≥50% = +++) |
| 25 (LLWGHPRVALA; listed as Homo sapiens) [compound 25] | +++ (= ≥50% = +++) |
| 45 (FLPVSVVYV; listed as Homo sapiens) [compound 45] | +++ (= ≥50% = +++) |
| 145 (ALEEKLENV; listed as Homo sapiens) [compound 145] | +++ (= ≥50% = +++) |
| 7 (ALLQALMEL; listed as Homo sapiens) [compound 7] | +++ (= ≥50% = +++) |
| 140 (FLDSQITTV; listed as Homo sapiens) [compound 140] | +++ (= ≥50% = +++) |
| 95 (KLIDEDEPLFL; listed as Homo sapiens) [compound 95] | +++ (= ≥50% = +++) |
| 86 (SLFSNIESV; listed as Homo sapiens) [compound 86] | +++ (= ≥50% = +++) |
| 98 (FVQEKIPEL; listed as Homo sapiens) [compound 98] | +++ (= ≥50% = +++) |
| 59 (ALADGIKSFLL; listed as Homo sapiens) [compound 59] | +++ (= ≥50% = +++) |
| 75 (ALLDGALQL; listed as Homo sapiens) [compound 75] | +++ (= ≥50% = +++) |
| 21 (YLMDDFSSL; listed as Homo sapiens) [compound 21] | +++ (= ≥50% = +++) |
| 10 (QLIEKNWLL; listed as Homo sapiens) [compound 10] | +++ (= ≥50% = +++) |
| 11 (LLDPKTIFL; listed as Homo sapiens) [compound 11] | +++ (= ≥50% = +++) |
| 112 (ILAQDVAQL; listed as Homo sapiens) [compound 112] | +++ (= ≥50% = +++) |
| 126 (QLREAFEQL; listed as Homo sapiens) [compound 126] | +++ (= ≥50% = +++) |

| Substance | Peptide exchange (MHC class I binding score, peptide exchange yield) |
| --- | --- |
| 60 (YLFSQGLQGL; listed as Homo sapiens) [compound 60] | +++ (= ≥50% = +++) |
| 82 (ILAEEPIYIRV; listed as Homo sapiens) [compound 82] | +++ (= ≥50% = +++) |
| 100 (ALQSFEFRV; listed as Homo sapiens) [compound 100] | +++ (= ≥50% = +++) |
| 109 (ILGSFELQL; listed as Homo sapiens) [compound 109] | +++ (= ≥50% = +++) |
| 80 (VLTGQVHEL; listed as Homo sapiens) [compound 80] | +++ (= ≥50% = +++) |
| 5 (GLVDIMVHL; listed as Homo sapiens) [compound 5] | +++ (= ≥50% = +++) |
| 16 (SLADLSLLL; listed as Homo sapiens) [compound 16] | +++ (= ≥50% = +++) |
| 13 (RLHDENILL; listed as Homo sapiens) [compound 13] | +++ (= ≥50% = +++) |
| 147 (GLLSALENV; listed as Homo sapiens) [compound 147] | +++ (= ≥50% = +++) |
| 40 (KIWEELSVLEV; listed as Homo sapiens) [compound 40] | +++ (= ≥50% = +++) |
| 30 (IITEVITRL; listed as Homo sapiens) [compound 30] | +++ (= ≥50% = +++) |
| 87 (KLLSLLEEA; listed as Homo sapiens) [compound 87] | +++ (= ≥50% = +++) |
| 125 (AALEVLAEV; listed as Homo sapiens) [compound 125] | +++ (= ≥50% = +++) |
| 108 (FIANLPPELKA; listed as Homo sapiens) [compound 108] | +++ (= ≥50% = +++) |
| 31 (GLLETTGLLAT; listed as Homo sapiens) [compound 31] | +++ (= ≥50% = +++) |

The next lines start with the values.

| Peptide exchange (MHC class I binding score, peptide exchange yield) | Substance |
| --- | --- |
| +++ (= ≥50% = +++) | 195 (VIIQNLPAL; listed as Homo sapiens) [compound 195] |
| +++ (= ≥50% = +++) | 210 (GLAGDNIYL; listed as Homo sapiens) [compound 210] |
| +++ (= ≥50% = +++) | 164 (MLIIRVPSV; listed as Homo sapiens) [compound 164] |
| +++ (= ≥50% = +++) | 190 (SLSTELFKV; listed as Homo sapiens) [compound 190] |
| +++ (= ≥50% = +++) | 265 (FLLDKPQDLSI; listed as Homo sapiens) [compound 265] |
| +++ (= ≥50% = +++) | 262 (LLLEAVWHL; listed as Homo sapiens) [compound 262] |
| +++ (= ≥50% = +++) | 237 (ALLEQTGDMSL; listed as Homo sapiens) [compound 237] |
| +++ (= ≥50% = +++) | 213 (ILAVDGVLSV; listed as Homo sapiens) [compound 213] |
| +++ (= ≥50% = +++) | 253 (KLLAVIHEL; listed as Homo sapiens) [compound 253] |
| +++ (= ≥50% = +++) | 256 (FLNDIFERI; listed as Homo sapiens) [compound 256] |
| +++ (= ≥50% = +++) | 261 (GLAALAVHL; listed as Homo sapiens) [compound 261] |
| +++ (= ≥50% = +++) | 239 (VIIKGLEEITV; listed as Homo sapiens) [compound 239] |
| +++ (= ≥50% = +++) | 160 (TLQEWLTEV; listed as Homo sapiens) [compound 160] |
| +++ (= ≥50% = +++) | 276 (RMPTVLQCV; listed as Homo sapiens) [compound 276] |
| +++ (= ≥50% = +++) | 248 (VLMQDSRLYL; listed as Homo sapiens) [compound 248] |
| +++ (= ≥50% = +++) | 211 (LLTTVLINA; listed as Homo sapiens) [compound 211] |
| +++ (= ≥50% = +++) | 204 (SEWGSPHAAVP; listed as Homo sapiens) [compound 204] |
| +++ (= ≥50% = +++) | 250 (LMQDSRLYL; listed as Homo sapiens) [compound 250] |
| +++ (= ≥50% = +++) | 200 (IMPTFDLTKV; listed as Homo sapiens) [compound 200] |
| +++ (= ≥50% = +++) | 249 (YLYQILQGI; listed as Homo sapiens) [compound 249] |
| +++ (= ≥50% = +++) | 153 (KLVELEHTL; listed as Homo sapiens) [compound 153] |
| +++ (= ≥50% = +++) | 162 (GLLGNLLTSL; listed as Homo sapiens) [compound 162] |
| +++ (= ≥50% = +++) | 278 (VLEDKVLSV; listed as Homo sapiens) [compound 278] |
| +++ (= ≥50% = +++) | 166 (LLGDSSFFL; listed as Homo sapiens) [compound 166] |
| +++ (= ≥50% = +++) | 182 (GLQDGFQITV; listed as Homo sapiens) [compound 182] |
| +++ (= ≥50% = +++) | 177 (ALINVLNAL; listed as Homo sapiens) [compound 177] |
| +++ (= ≥50% = +++) | 169 (ALADLSVAV; listed as Homo sapiens) [compound 169] |
| +++ (= ≥50% = +++) | 148 (YLILSSHQL; listed as Homo sapiens) [compound 148] |
| +++ (= ≥50% = +++) | 274 (TLYNPERTITV; listed as Homo sapiens) [compound 274] |
| +++ (= ≥50% = +++) | 241 (KQFEGTVEI; listed as Homo sapiens) [compound 241] |
